Results as given in the PETadex activity labels (doi:10.1016/j.eti.2025.104587).

What was measured:
PET = experiment: Proxy for plastic degradation [Weight/mass loss]; conditions: pH 7.5; 0 h
pNPB = experiment: Proxy for plastic degradation [p-nitrophenol (pNP) release] (% relative activity)

B1: unnamed (protein)
chain: MKSVLARARLVAAATAMLAFAAWALVSAAPAVEAQSNPYQRGPNPTRSALTADGPFSVSTYSVSGLSVSGFGGGVIYYPTGTTLTFGGIAMSPGYTASSSSLAWLGRRLASHGFVVLVIDTITRLDFPDSRASQLSAALNYLRTSSPSTVRARLDGTRLAVAGHSMGGGGTLRVSEQLPSLKAGVPLTPWHTDKTFNTSVPQLIVGAENDSVAPVSQHAIPFYQNLPSTTPKVYVELNNASHFAPNTSNATISVYTISWMKLWVDNDTRYRPFLCNVSDASLSDFRSNNRHCQ
Proxy for plastic degradation (PET): 0%
Proxy for plastic degradation (pNPB; pH 4): 0
Proxy for plastic degradation (pNPB; pH 5): 34.5
Proxy for plastic degradation (pNPB; pH 6.5): 75
Proxy for plastic degradation (pNPB; pH 7): 86.5
Proxy for plastic degradation (pNPB; pH 7.5): 99.5
Proxy for plastic degradation (pNPB; pH 7.5, 30 °C): 39.5
Proxy for plastic degradation (pNPB; pH 7.5, 40 °C): 41
Proxy for plastic degradation (pNPB; pH 7.5, 50 °C): 48
Proxy for plastic degradation (pNPB; pH 7.5, 60 °C): 72
Proxy for plastic degradation (pNPB; pH 7.5, 70 °C): 99
Proxy for plastic degradation (pNPB; pH 7.5, 80 °C): 69.5
Proxy for plastic degradation (pNPB; pH 9): 60.5
Proxy for plastic degradation (pNPB; pH 10): 45.5
